Values of other authors in paper PMC3654037.
pKd: −log10 of the molar value.

Tests used:
CD58 (Homo sapiens) = CD58 (Homo sapiens) (UniProt P19256)
nectin-2 (Homo sapiens) = nectin-2 (Homo sapiens) (UniProt Q92692)
CD86 (Homo sapiens) = CD86 (Homo sapiens) (UniProt P42081)
nectin-4 (Homo sapiens) = nectin-4 (Homo sapiens) (UniProt Q96NY8)
nectin-1 (Homo sapiens) = nectin-1 (Homo sapiens) (UniProt Q15223)
CD48 (Homo sapiens) = CD48 (Homo sapiens) (UniProt P09326)
UniProt P09326, sequence (P09326 27-220): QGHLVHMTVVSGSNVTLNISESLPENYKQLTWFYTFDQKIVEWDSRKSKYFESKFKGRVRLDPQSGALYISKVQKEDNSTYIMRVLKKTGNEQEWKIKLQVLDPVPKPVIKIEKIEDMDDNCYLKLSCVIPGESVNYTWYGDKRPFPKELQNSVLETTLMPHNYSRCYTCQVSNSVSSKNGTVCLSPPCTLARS

UniProt P42081, sequence (P42081 24-247): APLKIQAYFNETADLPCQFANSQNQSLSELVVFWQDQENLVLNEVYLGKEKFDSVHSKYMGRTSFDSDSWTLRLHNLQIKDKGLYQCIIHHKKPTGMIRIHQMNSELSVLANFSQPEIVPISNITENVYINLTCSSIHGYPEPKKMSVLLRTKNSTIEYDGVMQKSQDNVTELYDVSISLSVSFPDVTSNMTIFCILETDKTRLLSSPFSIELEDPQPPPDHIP
UniProt P19256, sequence (P19256 29-215): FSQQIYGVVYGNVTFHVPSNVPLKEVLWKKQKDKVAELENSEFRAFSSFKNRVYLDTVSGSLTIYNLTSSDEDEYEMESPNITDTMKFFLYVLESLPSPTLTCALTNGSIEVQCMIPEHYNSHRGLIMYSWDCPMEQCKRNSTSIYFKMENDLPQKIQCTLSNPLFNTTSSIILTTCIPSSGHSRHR

CD2 (from UniProt P06729)
pKd (CD58 (Homo sapiens)): 5.00

nectin-2 (from UniProt Q92692)
pKd (nectin-2 (Homo sapiens)): 6.40

CD28 (from UniProt P10747)
pKd (CD86 (Homo sapiens)): 4.70

nectin-4 (from UniProt Q96NY8)
pKd (nectin-4 (Homo sapiens)): 3.82

nectin-1 (from UniProt Q15223)
pKd (nectin-1 (Homo sapiens)): 4.76

2B4 (from UniProt Q9BZW8)
pKd (CD48 (Homo sapiens)): 5.00
